From US20240052038A1
Where two headings read alike, the source gives them in different places. Blank lines part the entries; values can stand above or below the substance they belong to.

What was measured:
[1] = target: Fc-γ receptors expressed on the immune cells; assay: cell-based or functional assay
[2] = target: Fc-γ receptors expressed on the immune cells; assay: cell-based or functional assay; remark: listed apart in the source
[3] = target: mouse PD-L1 on CD3+ T lymphocytes (mouse) (UniProt Q9EP73); assay: receptor occupancy on blood CD3+ T cells by flow cytometry, mice dosed with 1.5 mg/mouse, day 10
[4] = target: mouse PD-L1 on CD3+ T lymphocytes (mouse) (UniProt Q9EP73); assay: receptor occupancy on blood CD3+ T cells by flow cytometry, correlated with serum antibody concentration after a single injection in mice

Chain of mouse PD-L1 on CD3+ T lymphocytes (mouse) (Q9EP73 19-290): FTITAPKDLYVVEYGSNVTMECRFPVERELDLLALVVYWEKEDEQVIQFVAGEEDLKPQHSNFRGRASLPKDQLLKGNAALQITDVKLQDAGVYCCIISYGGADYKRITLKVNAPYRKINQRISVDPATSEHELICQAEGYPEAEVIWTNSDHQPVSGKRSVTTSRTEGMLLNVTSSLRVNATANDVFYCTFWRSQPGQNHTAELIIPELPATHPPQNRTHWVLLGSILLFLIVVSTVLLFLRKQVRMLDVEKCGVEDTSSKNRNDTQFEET

EC50 (ADCC, Raji/CD-20 target cells, E/T 25:1) [1]: 2.1 ng/mL | Target cell lysis (ADCC, Raji/CD-20 target cells, E/T 25:1) [1]: 53.5% | EC50 (ADCC, Raji/CD-20 target cells, E/T 25:1) [2]: 1.9 ng/mL | Target cell lysis (ADCC, Raji/CD-20 target cells, E/T 25:1) [2]: 43.6% | Target cell lysis (ADCC, Raji/CD-20 target cells, PBMC effectors, E/T 25:1) [2]: 48.8%
Substance: Rituximab (antibody)

EC50 (ADCC, CHO-K1/PD-L1 target cells, E/T 25:1; no dose response curve) [2]: 9.5 ng/mL | Target cell lysis (ADCC, CHO-K1/PD-L1 target cells, E/T 25:1) [2]: 1.4%
Substance: biosimilar of atezolizumab (antibody)

receptor occupancy [3]: > 60% | serum antibody concentration above which complete target occupancy was achieved [4]: 1 nM
Substance: rat anti-mouse PD-L1 monoclonal antibody (clone 10F.9G2, BioXCell)
